Data published in patent US20260209359A1 (NEXTERA, published 2026).
Changes are numbered by the printed parent chain.

B1: 1-H02 full length human IgG1 (antibody, V domains shown)
VH: QVQLVQSGAEVKKPGASVKVSCKVSGYTLTELSMHWVRQAPGKGLEWMGGFDPEDGETIYAQKFQGRVTMTEDTSTDTAYMELSSLRSEDTAVYYCATDQGSSWGFYWGQGTLVTVSS
VL: not shown
notes: also called 1-H02 hIgG1; 1-H02 IgG
B2: AM17 scDb (bispecific antibody)
chain: DIRLTQSPSSLSASVGDRVTMTCRASQTVATYVNWYQQKPGRAPKLLMYVTSIRQSEVPSRFSGDGFGTDFTLTINPLQPDDFATYYCQQAYSTPVTFGQGTKLEIKGGGGSEVQLQQSGPELVKPGASMKISCKASGYSFTGYTMNWVKQSHGKNLEWMGLINPYKGVSTYNQKFKDKATLTVDKSSSTAYMELLSLTSEDSAVYYCARSGYYGDSDWYFDVWGAGTTVTVSSGGGGSGGGGSGGGGSDIQMTQTTSSLSASLGDRVTISCRASQDIRNYLNWYQQKPDGTVKLLIYYTSRLHSGVPSKFSGSGSGTDYSLTISNLEQEDIATYFCQQGNTLPWTFAGGTKLEIKGGGGSQVQLVQSGAEVKKPGASVKVSCKVSGYTLTELSMHWVRQAPGKGLEWMGGFDPEDGETIYAQKFQGRVTMTEDTSTDTAYMELSSLRSEDTAVYYCATDQGSSWGFYWGQGTLVTVSS
notes: as m68; without a His-tag in the SPR assay
B3: AM14 scDb (bispecific antibody)
chain: DIQLTQSPSSLSASVGDRVTITCRADIDIRWYLNWYQQKPGKAPKLLIYAASGLQSGVPSRFSGSGSGTDFTLTISSLQPEDFATYYCQQSYSTPFTFGPGTKVDIKGGGGSEVQLQQSGPELVKPGASMKISCKASGYSFTGYTMNWVKQSHGKNLEWMGLINPYKGVSTYNQKFKDKATLTVDKSSSTAYMELLSLTSEDSAVYYCARSGYYGDSDWYFDVWGAGTTVTVSSGGGGSGGGGSGGGGSDIQMTQTTSSLSASLGDRVTISCRASQDIRNYLNWYQQKPDGTVKLLIYYTSRLHSGVPSKFSGSGSGTDYSLTISNLEQEDIATYFCQQGNTLPWTFAGGTKLEIKGGGGSQVQLVQSGAEVKKPGASVKVSCKVSGYTLTELSMHWVRQAPGKGLEWMGGFDPEDGETIYAQKFQGRVTMTEDTSTDTAYMELSSLRSEDTAVYYCATDQGSSWGFYWGQGTLVTVSS
notes: as for B2
B4: AM11 scDb (bispecific antibody)
chain: DIRVTQSPSSLSASVGDRVTITCRADIDIRWYLNWYQQKPGKAPKLLIYAASSLQSGVPSRFSGSGSGTDFTLTISSLQPEDFATYYCQQSYSTPYTFGQGTKLEIKGGGGSEVQLQQSGPELVKPGASMKISCKASGYSFTGYTMNWVKQSHGKNLEWMGLINPYKGVSTYNQKFKDKATLTVDKSSSTAYMELLSLTSEDSAVYYCARSGYYGDSDWYFDVWGAGTTVTVSSGGGGSGGGGSGGGGSDIQMTQTTSSLSASLGDRVTISCRASQDIRNYLNWYQQKPDGTVKLLIYYTSRLHSGVPSKFSGSGSGTDYSLTISNLEQEDIATYFCQQGNTLPWTFAGGTKLEIKGGGGSQVQLVQSGAEVKKPGASVKVSCKVSGYTLTELSMHWVRQAPGKGLEWMGGFDPYLARTIYAQKFQGRVTMTEDTSTDTAYMELSSLRSEDTAVYYCATDQGSSWGFYWGQGTLVTVSS
notes: as for B2
B5: 1-H02 Fab (Fab, V domains shown)
VH: B1 VH
VL: not shown
notes: Fab format
B6: AMC8 scDb (bispecific antibody)
chain: B2 chain with S463A
notes: as m68
B7: AM2 scDb (bispecific antibody)
chain: B4 chain with D26S, I27Q, D28N, R30M, Y415E, L416D, A417G, R418E
notes: VLA-VHB-VLB-VHA, anti-CD3 UCHT1
B8: AMC9 scDb (bispecific antibody)
chain: B4 chain with D26S, I27Q, D28N, R30M, Y415E, L416D, A417G, R418E, S463A
notes: as m68
B9: AM2 Fab (Fab, V domains shown)
VH: B1 VH
VL: DIRVTQSPSSLSASVGDRVTITCRASQNIMWYLNWYQQKPGKAPKLLIYAASSLQSGVPSRFSGSGSGTDFTLTISSLQPEDFATYYCQQSYSTPYTFGQGTKLEIKR
B10: AM10 Fab (Fab, V domains shown)
VH: B1 VH with S102A
VL: not shown
notes: Fab format
B11: AM15 Fab (Fab, V domains shown)
VH: B1 VH
VL: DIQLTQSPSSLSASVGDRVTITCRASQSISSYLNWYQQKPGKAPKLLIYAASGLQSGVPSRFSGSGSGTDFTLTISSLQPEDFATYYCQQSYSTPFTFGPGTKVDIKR
B12: AMC9 Fab (Fab, V domains shown)
VH: B1 VH with S102A
VL: B9 VL

Molecular target: T1, HLA-A*02:01/MAGE-A4^230-239, soluble recombinant biotinylated pHLA (human, UniProt P04439 25-299 at identity 0.94); P61769 21-119, biotinylated)
T1 construct: Empty biotinylated HLA-A2 monomers (Tetramer Shop) loaded with synthetic peptide; also called MAGE-A4 pMHC; MAGE-A4-pHLA
Experiment: ELISA, biotinylated pHLA on neutravidin, protL-HRP
Method: Dotted lines indicate the EC₅₀ value (concentration at which half of maximal binding signal is achieved).
Assay 1 described above was performed. ELISA plates were coated with 5 μg/mL NeutrAvidin in PBS and incubated 16 h/4° C. (step (a)) and blocked with 5% skim milk powder in PBST for 1 h/room temperature (RT) (step (c)). […] Bound phage particles were detected with an anti-Fd antibody (anti-M13-HRP (Amersham Biosciences)), whereas bound IgG1 and scDb was detected with HRP conjugated protein L (Genscript) (step (i)). […] Plates were developed with TMB solution and read at 450 nm using a microplate reader (step (k)). Between each layer, the plates were washed 3× with PBST (steps (b), (d), (f), (h), and (j)).

Binder	EC50
B1	1.1 nM

Molecular target: T1, HLA-A*02:01/MAGE-A4^230-239, soluble …
Experiment: SPR, biotinylated pHLA on neutravidin chip, scDb without His-tag injected (Assay 6-2)

Binder	Kd
B2	10.8 nM
B3	0.44 nM
B4	3.2 nM

Molecular target: T1, HLA-A*02:01/MAGE-A4^230-239, soluble …
Experiment: SPR, biotinylated pHLA on neutravidin chip, Fab injected (Assay 6-1); Fab, not scDb

Binder	Kd
B5	1410 nM

Molecular target: T1, HLA-A*02:01/MAGE-A4^230-239, soluble …
Experiment: ELISA, soluble biotinylated pHLA on neutravidin, scDb, protL-HRP
Method: ELISA plates were coated with 5 μg/mL NeutrAvidin in PBS and incubated 16 h/4° C. (step (a)) and blocked with 5% skim milk powder in PBST for 1 h/room temperature (RT) (step (c)). […] Bound phage particles were detected with an anti-Fd antibody (anti-M13-HRP (Amersham Biosciences)), whereas bound IgG1 and scDb was detected with HRP conjugated protein L (Genscript) (step (i)). […] Plates were developed with TMB solution and read at 450 nm using a microplate reader (step (k)). Between each layer, the plates were washed 3× with PBST (steps (b), (d), (f), (h), and (j)).

Binder	EC50
B2	0.3 nM
B6	0.88 nM
B7	0.32 nM
B8	0.62 nM
B3	0.1 nM
B4	0.17 nM

Molecular target: T2, HLA-A*02:01/MAGE-A4^230-239 displayed on cells (MAGE-A4^230-239 pulsed T2 cells; NCI-H1703, A375, THP1, … (human, UniProt P04439 25-365 at identity 0.94); P61769 21-119)
Experiment: cell-based or functional assay

Binder	EC50 vs. NCI-H1703 (pM), T-cell specific killing
B2	2.9 pM
B6	2.51 pM
B7	2.2 pM
B8	1.68 pM
B3	5.1 pM
B4	3.1 pM

Molecular target: T2, HLA-A*02:01/MAGE-A4^230-239 displayed …
Experiment: cell-based or functional assay
Remark: another data set of the same source

Binder	IFNγ EC50 vs. target positive cells (pM)
B2	10.9 pM
B6	7.7 pM
B7	4.4 pM
B8	7.6 pM
B3	4.1 pM
B4	7.2 pM

Molecular target: T2, HLA-A*02:01/MAGE-A4^230-239 displayed …
Experiment: cell-based or functional assay
Remark: another data set of the same source

Binder	EC50 vs. A375 (pM), T-cell specific killing
B6	1.6 pM
B7	3.7 pM
B8	2.4 pM

Molecular target: T2, HLA-A*02:01/MAGE-A4^230-239 displayed …
Experiment: cell-based or functional assay
Remark: another data set of the same source

Binder	EC50 vs. C-33-A (pM), T-cell specific killing	EC50 vs. HuTu80 (pM), T-cell specific killing
B7	7.2 pM	7.8 pM
B8	1.33 pM	6.6 pM

Molecular target: T1, HLA-A*02:01/MAGE-A4^230-239, soluble …
Experiment: SPR, biotinylated pHLA on neutravidin chip, Fab injected (Assay 6-1); Fab format

Binder	Kd
B9	86.3 nM
B10	325 nM
B11	148 nM
B12	15.8 nM
